In article PMC10397247:
Each block holds one binder with its values, some of them ahead of it.

Columns and labels:
P7 = target: T1, P7; assay: two-hybrid library CC1;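 also: natural log of median RNA to DNA barcode read ratio; higher means stronger binding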
T1 chain: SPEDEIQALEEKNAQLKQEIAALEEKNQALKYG

P7mS = target: T2, P7mS; assay: two-hybrid library CC1; settings: mean of both orientations;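 also: natural log of median RNA to DNA barcode read ratio; higher means stronger binding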
T2 chain: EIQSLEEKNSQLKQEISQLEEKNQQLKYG

P8 = target: T3, P8; assay: two-hybrid library CC1; settings: mean of both orientations;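 also: natural log of median RNA to DNA barcode read ratio; higher means stronger binding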
T3 chain: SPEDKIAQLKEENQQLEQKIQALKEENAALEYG

P8mS = target: T4, P8mS; assay: two-hybrid library CC1; settings: mean of both orientations;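 also: natural log of median RNA to DNA barcode read ratio; higher means stronger binding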
T4 chain: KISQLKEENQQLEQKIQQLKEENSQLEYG

P9 = target: T5, P9; assay: two-hybrid library CC1; settings: mean of both orientations;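 also: natural log of median RNA to DNA barcode read ratio; higher means stronger binding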
T5 chain: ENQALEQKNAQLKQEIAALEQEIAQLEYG

4H338-bH = target: T6, 4H338-bH; assay: two-hybrid library CCNG1;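 also: natural log of median RNA to DNA barcode read ratio; higher means stronger binding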
T6 chain: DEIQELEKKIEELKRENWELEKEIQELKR

4H3427-bH = target: T7, 4H3427-bH; assay: two-hybrid library CCNG1
T7 chain: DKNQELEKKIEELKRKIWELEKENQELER

4H3782-bH = target: T8, 4H3782-bH; assay: two-hybrid library CCNG1
T8 chain: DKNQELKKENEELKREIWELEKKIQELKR

4H3855-bH = target: T9, 4H3855-bH; assay: two-hybrid library CCNG1
T9 chain: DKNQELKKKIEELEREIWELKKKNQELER

4H3926-bA = target: T10, 4H3926-bA; assay: two-hybrid library CCNG1
T10 chain: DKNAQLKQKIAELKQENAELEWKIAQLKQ

4H4001-bH = target: T11, 4H4001-bH; assay: two-hybrid library CCNG1
T11 chain: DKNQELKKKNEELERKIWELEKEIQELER

4H454-bH = target: T12, 4H454-bH; assay: two-hybrid library CCNG1
T12 chain: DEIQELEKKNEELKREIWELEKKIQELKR

4H568-bH = target: T13, 4H568-bH; assay: two-hybrid library CCNG1
T13 chain: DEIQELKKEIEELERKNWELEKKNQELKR

4H607-bH = target: T14, 4H607-bH; assay: two-hybrid library CCNG1
T14 chain: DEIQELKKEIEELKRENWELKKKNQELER

4H687-bH = target: T15, 4H687-bH; assay: two-hybrid library CCNG1
T15 chain: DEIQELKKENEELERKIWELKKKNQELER

4H717-bH = target: T16, 4H717-bH; assay: two-hybrid library CCNG1
T16 chain: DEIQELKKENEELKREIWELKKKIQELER

4H72-bH = target: T17, 4H72-bH; assay: two-hybrid library CCNG1
T17 chain: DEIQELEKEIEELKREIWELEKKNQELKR

4H754-bH = target: T18, 4H754-bH; assay: two-hybrid library CCNG1
T18 chain: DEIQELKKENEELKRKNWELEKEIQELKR

4H797-bH = target: T19, 4H797-bH; assay: two-hybrid library CCNG1
T19 chain: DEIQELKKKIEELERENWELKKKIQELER

4H883-bH = target: T20, 4H883-bH; assay: two-hybrid library CCNG1
T20 chain: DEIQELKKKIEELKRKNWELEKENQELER

4H908-bH = target: T21, 4H908-bH; assay: two-hybrid library CCNG1
T21 chain: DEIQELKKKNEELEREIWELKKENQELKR

4H918-bH = target: T22, 4H918-bH; assay: two-hybrid library CCNG1
T22 chain: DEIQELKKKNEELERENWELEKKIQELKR

4H953-bH = target: T23, 4H953-bH; assay: two-hybrid library CCNG1
T23 chain: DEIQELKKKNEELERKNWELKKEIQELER

4H967-bH = target: T24, 4H967-bH; assay: two-hybrid library CCNG1
T24 chain: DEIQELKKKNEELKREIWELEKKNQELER

4H319-bH = target: T25, 4H319-bH; assay: two-hybrid library CCNG1
T25 chain: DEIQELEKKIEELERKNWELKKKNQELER

4H3277-bH = target: T26, 4H3277-bH; assay: two-hybrid library CCNG1
T26 chain: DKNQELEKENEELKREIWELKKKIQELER

4H348-bH = target: T27, 4H348-bH; assay: two-hybrid library CCNG1
T27 chain: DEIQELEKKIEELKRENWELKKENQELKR

4H40-bH = target: T28, 4H40-bH; assay: two-hybrid library CCNG1
T28 chain: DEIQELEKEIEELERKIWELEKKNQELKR

4H477-bH = target: T29, 4H477-bH; assay: two-hybrid library CCNG1
T29 chain: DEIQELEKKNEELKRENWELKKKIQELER

4H492-bH = target: T30, 4H492-bH; assay: two-hybrid library CCNG1
T30 chain: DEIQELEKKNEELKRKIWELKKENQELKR

4H741-bH = target: T31, 4H741-bH; assay: two-hybrid library CCNG1
T31 chain: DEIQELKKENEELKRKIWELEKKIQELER

Binder: SPEDEIQALEEKNAQLKQEIAALEEKNQALKYG [P7]
interaction score (P7): -2.29
interaction score (P7mS): -2.52
interaction score (P8): 0.391
interaction score (P8mS): 0.223
interaction score (P9): -2.07

interaction score (4H338-bH): 1.76
interaction score (4H3427-bH): 0.373
interaction score (4H3782-bH): -0.321
interaction score (4H3855-bH): 0.141
interaction score (4H3926-bA): 1.81
interaction score (4H4001-bH): 0.346
interaction score (4H454-bH): 1.38
interaction score (4H568-bH): 0.785
interaction score (4H607-bH): 0.393
interaction score (4H687-bH): -0.366
interaction score (4H717-bH): 0.186
interaction score (4H72-bH): -1.44
interaction score (4H754-bH): 0.366
interaction score (4H797-bH): -0.318
interaction score (4H883-bH): 0.0489
interaction score (4H908-bH): -3.02
interaction score (4H918-bH): -0.137
interaction score (4H953-bH): 1.25
interaction score (4H967-bH): 0.908
Binder: DEIQELEKKIEELKRENWELEKEIQELKR [4H338-bH]

interaction score (4H319-bH): 1.04
interaction score (4H3277-bH): -0.168
interaction score (4H348-bH): 0.143
interaction score (4H40-bH): -2.01
interaction score (4H477-bH): -0.71
interaction score (4H492-bH): -0.172
interaction score (4H741-bH): 0.321
Binder: DEIQELEKKIEELERKNWELKKKNQELER [4H319-bH]

interaction score (4H348-bH): 0.666
interaction score (4H40-bH): -0.14
interaction score (4H477-bH): 0.107
interaction score (4H492-bH): -0.683
interaction score (4H741-bH): 1.04
Binder: DEIQELEKKIEELKRENWELKKENQELKR [4H348-bH]
